Measurements from publication PMC11032339.

Columns and labels:
[1] = target: soluble full-length recombinant ADAMTS13 (UniProt Q76LX8); experiment: SPR; Biacore T200; ADAMTS13, MDTCS (or fibrinogen) immobilised on CM5 by amine coupling (500-1000 RU); analytes 0-7 µM (or 0-3.5 µM) with 5 mM AEBSF and 10 µM VFKck; 20 mM HEPES-NaOH, 150 mM NaCl, pH 7.4, 0.01% Tween-20, 10 mM CaCl2, 10 µM ZnCl2; 20 µl/min, 25 °C; equilibrium responses fitted to a one-site binding model
[2] = target: soluble full-length recombinant ADAMTS13 (UniProt Q76LX8)
fibrinogen = experiment: SPR; Biacore T200; ADAMTS13, MDTCS (or fibrinogen) immobilised on CM5 by amine coupling (500-1000 RU); analytes 0-7 µM (or 0-3.5 µM) with 5 mM AEBSF and 10 µM VFKck; 20 mM HEPES-NaOH, 150 mM NaCl, pH 7.4, 0.01% Tween-20, 10 mM CaCl2, 10 µM ZnCl2; 20 µl/min, 25 °C; equilibrium responses fitted to a one-site binding model

UniProt Q76LX8, sequence (Q76LX8 75-1427): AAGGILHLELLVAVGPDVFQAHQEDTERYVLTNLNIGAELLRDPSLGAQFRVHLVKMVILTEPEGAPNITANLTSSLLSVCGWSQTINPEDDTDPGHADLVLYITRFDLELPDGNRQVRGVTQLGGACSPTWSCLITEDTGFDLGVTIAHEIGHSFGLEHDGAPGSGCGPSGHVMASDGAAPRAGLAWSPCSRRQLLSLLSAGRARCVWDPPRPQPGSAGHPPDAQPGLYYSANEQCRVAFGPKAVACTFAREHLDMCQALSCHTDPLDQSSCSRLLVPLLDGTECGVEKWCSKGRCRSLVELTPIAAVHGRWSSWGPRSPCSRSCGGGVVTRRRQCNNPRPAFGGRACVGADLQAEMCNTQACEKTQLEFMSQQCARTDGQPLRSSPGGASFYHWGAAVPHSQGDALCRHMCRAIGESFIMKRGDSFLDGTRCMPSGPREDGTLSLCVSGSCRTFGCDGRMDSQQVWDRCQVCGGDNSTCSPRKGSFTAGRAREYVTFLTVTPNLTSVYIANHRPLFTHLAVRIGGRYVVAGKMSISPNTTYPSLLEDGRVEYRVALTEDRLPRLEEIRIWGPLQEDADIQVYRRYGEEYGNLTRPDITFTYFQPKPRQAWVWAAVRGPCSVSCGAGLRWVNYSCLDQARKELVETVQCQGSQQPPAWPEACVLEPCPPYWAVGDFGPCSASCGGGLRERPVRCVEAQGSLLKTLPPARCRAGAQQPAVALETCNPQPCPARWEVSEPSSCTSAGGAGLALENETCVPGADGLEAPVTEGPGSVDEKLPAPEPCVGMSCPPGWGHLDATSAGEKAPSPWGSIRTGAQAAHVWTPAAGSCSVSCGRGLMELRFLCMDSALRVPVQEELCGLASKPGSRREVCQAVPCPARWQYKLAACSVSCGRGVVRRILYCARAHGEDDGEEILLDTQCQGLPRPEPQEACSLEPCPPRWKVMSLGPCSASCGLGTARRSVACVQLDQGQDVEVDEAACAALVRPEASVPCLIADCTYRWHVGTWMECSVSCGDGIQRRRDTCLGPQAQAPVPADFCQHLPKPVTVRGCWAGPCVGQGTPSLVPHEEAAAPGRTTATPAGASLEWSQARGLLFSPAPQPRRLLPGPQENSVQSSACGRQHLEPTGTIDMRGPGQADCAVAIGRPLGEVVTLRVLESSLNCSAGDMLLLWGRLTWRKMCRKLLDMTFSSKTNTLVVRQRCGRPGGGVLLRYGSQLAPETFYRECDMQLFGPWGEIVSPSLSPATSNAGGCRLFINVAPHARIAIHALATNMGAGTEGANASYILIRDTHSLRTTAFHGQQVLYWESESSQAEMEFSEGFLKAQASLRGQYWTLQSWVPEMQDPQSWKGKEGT

Substance: Lys-plasminogen (natural protein)
- Kd [1]: 1 µM

Substance: VFK-plasmin (enzyme)
- Kd [1]: 1.8 µM
- rate of degradation of 100 nM ADAMTS13 by 10 nM active plasmin (Prolytix, not VFK-blocked) at 37 °C in the presence of 5 mM TXA; Western blot densitometry of the intact ADAMTS13 band [2]: 0.05 nM/min
- rate of degradation of 100 nM ADAMTS13 by 10 nM active plasmin (Prolytix, not VFK-blocked) at 37 °C without TXA; Western blot densitometry of the intact ADAMTS13 band [2]: 1.6 nM/min

Substance: Glu-plasminogen (natural protein)
- Kd [1]: 2.8 µM

Substance: Mini-plasminogen (domain or fragment)
- Kd [1]: 1.5 µM

Substance: 17-kringle form of apolipoprotein(a) (natural protein)
- Kd (fibrinogen): 2.4 µM
- Kd [1]: 4 µM
